What was measured:
ComFC (His6-ComFC) = target: T1, ComFC (His6-ComFC) (Helicobacter pylori, UniProt O26008); assay: differential scanning fluorimetry (SYPRO Orange); format: binding; details: 20 mM Tris-Cl pH 7.5, 200 mM NaCl
T1 construct: gene HP_1473; full length, 191 residues, His6 tag kept (six His codons added at 5' end; also called ComFC-6His), pET21a, E. coli BL21(DE3) Gold
T1 sequence (O26008 1-191): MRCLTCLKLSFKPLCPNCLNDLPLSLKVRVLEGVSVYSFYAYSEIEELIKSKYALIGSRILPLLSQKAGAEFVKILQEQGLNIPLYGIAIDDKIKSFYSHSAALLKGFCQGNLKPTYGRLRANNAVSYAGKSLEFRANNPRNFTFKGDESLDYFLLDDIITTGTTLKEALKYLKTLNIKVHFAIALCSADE

ComFC T165A = ComFC T165A (Helicobacter pylori 26695, UniProt O26008 1-191, T165A); assay: EMSA; no significant difference from WT; details: protein: recombinant; label: 5'-Cy5
ComFC WT (His6-ComFC) = target: T2, ComFC WT (His6-ComFC) (Helicobacter pylori 26695, UniProt O26008 1-191); assay: EMSA; EMSA: 10 mM Tris-HCl pH 7.5, 50 mM KCl, 1 mM DTT, 0.1 ug/ul BSA, 4 °C, 30 min; native 6% TBE-PAGE; details: protein: recombinant; tags: His6 (text: codons added at 5' end, also written ComFC-6His); label: 5'-Cy5
T2 sequence: T1 sequence (O26008 1-191)

Q: `Nc1ncnc2c1ncn2[C@@H]1O[C@H](COP(=O)(O)OP(=O)(O)O)[C@@H](O)[C@H]1O` [ADP] was tested. Which dTm (ComFC (His6-ComFC)) did it give?
A: ADP addition also resulted in an increase in melting temperature

B1: XV2 62-mer ssDNA (ssDNA)
DNA: TGGGTGAACCTGCAGGTGGGCAAAGATGTCCTAGCAATGTAATCGTCAAGCTTTATGCCGTT
Q: Does B1 bind (ComFC T165A)?
A: binds

Q: And the “apparent K (half saturation)” value (ComFC WT (His6-ComFC))?
A: 300 nM

Source: article PMC9005727, “ComFC mediates transport and handling of single-stranded DNA during natural transformation” (Nature Communications, 2022)
